± gives the standard deviation of the averaged measurements.
Test system: ATP
Experiment: switch fluorescence ratio, 500 uM ATP over buffer (Cy3 cluster intensity, sum of 5 cycles each) (fold (ratio)); higher = stronger signal-on switching upon ATP binding; sequences stand for … in TCGTCGGCAGCGTCAGATGTGTATAAGAGACAGTTTTTTTTTTTTTTTTTTTTTTTTT…TC
Details: aptamer strand: ATP DNA aptamer (quencher-CACCTGGGGGAGTATTGCGGAGGAAGG + anchor), 100 nM annealed; ATP concentration: 500 uM
Method in brief: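 Clusters carrying Cy3-labelled switching strands on a modified Illumina MiSeq flow-cell were annealed to 100 nM quencher-labelled ATP aptamer and imaged in selection buffer. They were imaged again after 15 min with 500 uM ATP at 22 °C, over five buffer/ATP cycles with NaOH stripping and re-annealing in between. For each cluster, the fluorescence ratio is the summed Cy3 intensity of the target cycles divided by that of the buffer cycles, averaged per switch-domain sequence. Clusters outside 100-1000 RFU were left out.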
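Further: ATP exposure 15 min at 22 °C before imaging.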

| Sequence | switch fluorescence ratio |
| --- | --- |
| AACAGCCACA | 1.11 ± 0.028 |
| AACAGGATGC | 1.027 ± 0.0039 |
| AACAGGGGCT | 1.09 ± 0.12 |
| AACAGTGATA | 1.01 ± 0.027 |
| AACAGTGTAG | 1 ± 0.013 |
| AACAGTTCTG | 0.986 ± 0.027 |
| AACAGTTTGT | 1 ± 0.017 |
| AACATAGTAG | 0.96446 ± 0.0004 |
| AACATGCGCA | 0.9712 ± 0.0047 |
| AACATTTTAA | 0.965 ± 0.04 |
| AACATTTTTG | 0.998 ± 0.026 |
| AACCAATCGA | 1.04 ± 0.05 |
| AACCATGGGT | 1.01 ± 0.03 |
| AACCCGGATT | 0.9958 ± 0.0035 |
| AACCGGTGCA | 1.08 ± 0.017 |
| AACCGTGGCG | 1.07 ± 0.041 |
| AACCTCTTAG | 0.992 ± 0.026 |
| AACCTGCTAA | 1.057 ± 0.0014 |
| AACCTGTCGG | 1.01 ± 0.028 |
| AACGAAGATT | 1.01 ± 0.019 |
| AACGAATAAA | 0.994 ± 0.025 |
| AACGACCCCC | 1.74 ± 0.31 |
| AACGAGACCA | 1.07 ± 0.052 |
| AACGAGAGGG | 1.04 ± 0.035 |
| AACGAGTGTG | 1.01 ± 0.052 |

| Sequence | switch fluorescence ratio |
| --- | --- |
| AACGATAAAT | 1.03 ± 0.014 |
| AACGATAGCA | 1.08 ± 0.016 |
| AACGATTGGG | 0.948 ± 0.027 |
| AACGGAACTA | 1.15 ± 0.019 |
| AACGGACAAA | 1.2 ± 0.052 |
| AACGGACGGC | 1.48 ± 0.098 |
| AACGGCAGGT | 1.03 ± 0.013 |
| AACGGCAGTG | 1.03 ± 0.022 |
| AACGGCGCTA | 1.045 ± 0.0057 |
| AACGGGACCT | 1.33 ± 0.081 |
| AACGGGATAT | 1.09 ± 0.0021 |
| AACGGGATGG | 1.02 ± 0.036 |
| AACGGGGATA | 1.049 ± 0.0065 |
| AACGGGTAGC | 0.993 ± 0.029 |
| AACGGTCTGA | 1.009 ± 0.0024 |
| AACGGTTGAT | 0.974 ± 0.015 |
| AACGGTTTGG | 1.01 ± 0.021 |
| AACGTGAGGG | 0.989 ± 0.051 |
| AACGTGATTA | 1.07 ± 0.023 |
| AACGTGTTTT | 1.042 ± 0.006 |
| AACGTTATCT | 1.04 ± 0.015 |
| AACGTTCGCC | 0.987 ± 0.032 |
| AACGTTGTAC | 1.51 ± 0.037 |
| AACTAGATCG | 1.02 ± 0.028 |
| AACTAGGGTG | 1.12 ± 0.013 |

| Sequence | switch fluorescence ratio |
| --- | --- |
| AACTATATGG | 1.046 ± 0.0081 |
| AACTCACGGG | 1.63 ± 0.083 |
| AACTCAGCCG | 1.03 ± 0.013 |
| AACTCCAGTA | 1.008 ± 0.005 |
| AACTCCCTTT | 1.067 ± 0.0086 |
| AACTCCGGCG | 1.129 ± 0.0087 |
| AACTCTAAAA | 1.05 ± 0.051 |
| AACTGAGACT | 1.02 ± 0.032 |
| AACTGAGTTT | 1.008 ± 0.0015 |
| AACTGCGGTC | 1.016 ± 0.0031 |
| AACTGGCAAT | 1.5 ± 0.072 |
| AACTGTAAAT | 1.25 ± 0.2 |
| AACTGTGGAA | 0.991 ± 0.015 |
| AACTGTTTCG | 0.9707 ± 0.0013 |
| AACTTGTTAG | 1.01 ± 0.016 |
| AACTTTGTTG | 1 ± 0.011 |
| AACTTTTAGT | 0.99353 ± 0.00074 |
| AACTTTTTCG | 1.012 ± 0.0034 |
| AACTTTTTTA | 0.964 ± 0.017 |
| AAGAAAACGA | 0.998 ± 0.011 |
| AAGAAAAGGA | 1.02 ± 0.017 |
| AAGAAAGGTA | 1.01 ± 0.025 |
| AAGAAAGTCG | 0.9998 ± 0.0052 |
| AAGAAATAAA | 0.9744 ± 0.0095 |
| AAGAAATGGT | 1.05 ± 0.043 |

| Sequence | switch fluorescence ratio |
| --- | --- |
| AAGAACTTAG | 1.026 ± 0.0074 |
| AAGAAGCAGA | 1 ± 0.032 |
| AAGAAGCAGG | 1.06 ± 0.037 |
| AAGAAGGGCA | 1 ± 0.055 |
| AAGAAGGGGA | 1.22 ± 0.31 |
| AAGAATATGT | 0.9756 ± 0.008 |
| AAGAATTGGG | 1.06 ± 0.11 |
| AAGACACGC | 1.04 ± 0.042 |
| AAGACAGGAA | 1.03 ± 0.05 |
| AAGACATGGG | 1.002 ± 0.0021 |
| AAGACCGTTG | 0.967 ± 0.017 |
| AAGACGGGGA | 0.974 ± 0.023 |
| AAGAGACTGT | 1.002 ± 0.0034 |
| AAGAGGCTGG | 0.99 ± 0.024 |
| AAGAGGGACT | 1.03 ± 0.021 |
| AAGAGGGCGG | 0.991 ± 0.034 |
| AAGAGGGGAG | 1.01 ± 0.013 |
| AAGAGGGGGA | 0.996 ± 0.042 |
| AAGAGGGGGT | 1 ± 0.03 |
| AAGAGGGGT | 0.9904 ± 0.0048 |
| AAGAGGTTTT | 1.01 ± 0.02 |
| AAGAGTAGAT | 1.01 ± 0.017 |
| AAGAGTATCT | 1.01 ± 0.013 |
| AAGAGTATTG | 1 ± 0.02 |
| AAGAGTTTTT | 0.981 ± 0.033 |

| Sequence | switch fluorescence ratio |
| --- | --- |
| AAGATACGTT | 1.03 ± 0.011 |
| AAGATAGGTT | 1.02 ± 0.057 |
| AAGATATGGC | 1.02 ± 0.047 |
| AAGATCAGGC | 0.9735 ± 0.0023 |
| AAGATGAGTA | 0.982 ± 0.032 |
| AAGATGATGG | 1.01 ± 0.023 |
| AAGATGGGTG | 0.9968 ± 0.005 |
| AAGATGTAAT | 1.01 ± 0.0079 |
| AAGATGTCGT | 1.022 ± 0.0014 |
| AAGATTAGTT | 0.998 ± 0.017 |
| AAGATTCGCC | 0.993 ± 0.012 |
| AAGATTGTAA | 0.996 ± 0.03 |
| AAGATTTAGG | 1.01 ± 0.063 |
| AAGATTTGAC | 1.003 ± 0.0085 |
| AAGATTTGTT | 0.978 ± 0.021 |
| AAGATTTTAT | 0.977 ± 0.019 |
| AAGATTTTGT | 0.995 ± 0.014 |
| AAGATTTTTC | 0.992 ± 0.013 |
| AAGCACGGTT | 1.08 ± 0.093 |
| AAGCACGTTG | 1.05 ± 0.027 |
| AAGCAGACGG | 1.05 ± 0.036 |
| AAGCAGGGCT | 0.999 ± 0.019 |
| AAGCAGGGTG | 1 ± 0.04 |
| AAGCAGTCA | 1.01 ± 0.038 |
| AAGCAGTTAC | 3.41 ± 0.3 |

| Sequence | switch fluorescence ratio |
| --- | --- |
| AAGCATCTTT | 0.974 ± 0.013 |
| AAGCATTTAC | 3.118 ± 0.021 |
| AAGCCAGATG | 1.076 ± 0.0092 |
| AAGCGAGGGG | 1.03 ± 0.047 |
| AAGCGAGTTC | 0.9981 ± 0.0089 |
| AAGCGCTTTT | 0.979 ± 0.058 |
| AAGCGGGACG | 0.999 ± 0.054 |
| AAGCGGGCAG | 1 ± 0.02 |
| AAGCGGGGTG | 1.06 ± 0.063 |
| AAGCGGTCGC | 0.99 ± 0.017 |
| AAGCGTGCCT | 1.01 ± 0.018 |
| AAGCTACGGC | 1.02 ± 0.019 |
| AAGCTAGGAG | 0.999 ± 0.041 |
| AAGCTCGGTA | 0.9866 ± 0.0065 |
| AAGCTGATCT | 1.016 ± 0.0071 |
| AAGCTGCCTG | 1.02 ± 0.018 |
| AAGCTGTTTC | 1.009 ± 0.0061 |
| AAGCTTTACG | 1.052 ± 0.0079 |
| AAGCTTTATG | 1.003 ± 0.0052 |
| AAGCTTTGGA | 0.983 ± 0.012 |
| AAGCTTTTAT | 0.993 ± 0.06 |
| AAGGAAAGGC | 0.961 ± 0.037 |
| AAGGAAATAG | 0.969 ± 0.0021 |
| AAGGAAGAGG | 0.984 ± 0.064 |
| AAGGAATTAA | 1.07 ± 0.12 |

| Sequence | switch fluorescence ratio |
| --- | --- |
| AAGGAATTGT | 0.9729 ± 0.0085 |
| AAGGAATTTT | 1.05 ± 0.1 |
| AAGGACAAGG | 0.999 ± 0.043 |
| AAGGACCTCC | 1.232 ± 0.0034 |
| AAGGACGCTG | 0.991 ± 0.069 |
| AAGGACGTGG | 0.98 ± 0.029 |
| AAGGACTAAC | 1.12 ± 0.012 |
| AAGGACTATT | 1.03 ± 0.011 |
| AAGGAGCTGA | 0.9915 ± 0.0037 |
| AAGGAGTTTT | 0.973 ± 0.034 |
| AAGGATTAGA | 0.987 ± 0.02 |
| AAGGATTGGG | 1.02 ± 0.0049 |
| AAGGCAACGC | 0.98 ± 0.056 |
| AAGGCAATTT | 1.02 ± 0.048 |
| AAGGCACCTG | 1.03 ± 0.042 |
| AAGGCATGCA | 1.01 ± 0.032 |
| AAGGCATGCG | 1.037 ± 0.005 |
| AAGGCATTAT | 1.005 ± 0.0081 |
| AAGGCCGGGT | 1.05 ± 0.054 |
| AAGGCGGGGA | 1.017 ± 0.0051 |
| AAGGCGGGGC | 0.981 ± 0.051 |
| AAGGCTGCAG | 0.92 ± 0.05 |
| AAGGCTTAGC | 1.03 ± 0.039 |
| AAGGGAATAC | 2.6 ± 0.82 |
| AAGGGATCTG | 0.9763 ± 0.0069 |

| Sequence | switch fluorescence ratio |
| --- | --- |
| AAGGGATGCG | 1.09 ± 0.097 |
| AAGGGATGGC | 1.03 ± 0.043 |
| AAGGGATTAA | 1.01 ± 0.016 |
| AAGGGATTGG | 0.981 ± 0.031 |
| AAGGGCCTGG | 0.982 ± 0.029 |
| AAGGGCGTAT | 1.01 ± 0.02 |
| AAGGGCTCAT | 0.97409 ± 0.00079 |
| AAGGGCTGTG | 0.9845 ± 0.007 |
| AAGGGGACTT | 1.02 ± 0.037 |
| AAGGGGAGGT | 1.02 ± 0.041 |
| AAGGGGAGTC | 1.01 ± 0.0044 |
| AAGGGGAGTG | 1.02 ± 0.11 |
| AAGGGGATGG | 0.968 ± 0.038 |
| AAGGGGATTA | 0.99 ± 0.033 |
| AAGGGGCATT | 1.01 ± 0.011 |
| AAGGGGCGAG | 0.9796 ± 0.0074 |
| AAGGGGCGCC | 0.999 ± 0.052 |
| AAGGGGCGGG | 0.952 ± 0.011 |
| AAGGGGGAGC | 0.988 ± 0.042 |
| AAGGGGGCAG | 0.994 ± 0.025 |
| AAGGGGGCCG | 1.06 ± 0.092 |
| AAGGGGGCGG | 1 ± 0.015 |
| AAGGGGGGAC | 1.04 ± 0.07 |
| AAGGGGGGCG | 1.02 ± 0.037 |
| AAGGGGGGGT | 0.999 ± 0.03 |
